Measured values: publication PMC10397247
Where two headings read alike, the source gives them in different places. One block for each binder: values may come before it.

Experiments:
Assay in all cases: two-hybrid library CCmax;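 also: natural log of median RNA to DNA barcode read ratio; higher means stronger binding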
[1] = target: T1, APC8910-AA
T1 chain: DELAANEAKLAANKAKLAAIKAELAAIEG

[2] = target: T2, APC9096-AA; conditions: mean of both orientations
T2 chain: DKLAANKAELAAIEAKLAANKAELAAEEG

[3] = target: T3, APC9319-AA; conditions: mean of both orientations
T3 chain: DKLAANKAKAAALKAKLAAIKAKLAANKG

[4] = target: T4, APC8191-AA
T4 chain: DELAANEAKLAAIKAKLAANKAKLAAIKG

[5] = target: T5, APC8516-AA; conditions: mean of both orientations
T5 chain: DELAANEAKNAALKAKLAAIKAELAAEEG

[6] = target: T6, APC7524-AA
T6 chain: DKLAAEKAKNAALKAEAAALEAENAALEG

[7] = target: T7, APC9291-AA; conditions: mean of both orientations
T7 chain: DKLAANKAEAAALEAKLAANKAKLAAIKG

[8] = target: T8, APC8401-AA; conditions: mean of both orientations
T8 chain: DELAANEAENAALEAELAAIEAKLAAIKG

[9] = target: T9, APC9141-AA; conditions: mean of both orientations
T9 chain: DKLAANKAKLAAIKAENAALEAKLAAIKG

[10] = target: T10, APC9806-AA; conditions: mean of both orientations
T10 chain: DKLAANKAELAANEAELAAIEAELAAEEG

[11] = target: T11, APC9182-AA; conditions: mean of both orientations
T11 chain: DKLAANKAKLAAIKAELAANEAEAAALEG

[12] = target: T12, 4H3865-AA; conditions: mean of both orientations
T12 chain: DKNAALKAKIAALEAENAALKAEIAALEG

[13] = target: T13, 4H3130-AA; conditions: mean of both orientations
T13 chain: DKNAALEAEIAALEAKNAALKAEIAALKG

[14] = target: T14, 4H3395-AA; conditions: mean of both orientations
T14 chain: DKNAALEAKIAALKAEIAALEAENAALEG

[15] = target: T15, 4H850-AA; conditions: mean of both orientations
T15 chain: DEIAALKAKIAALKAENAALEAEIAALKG

[16] = target: T16, 4H94-AA; conditions: mean of both orientations
T16 chain: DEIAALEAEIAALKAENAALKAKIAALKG

[17] = target: T17, 4H3165-AA; conditions: mean of both orientations
T17 chain: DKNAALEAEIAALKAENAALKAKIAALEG

[18] = target: T18, 4H3016-AA; conditions: mean of both orientations
T18 chain: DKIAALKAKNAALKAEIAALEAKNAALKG

[19] = target: T19, 4H458-AA; conditions: mean of both orientations
T19 chain: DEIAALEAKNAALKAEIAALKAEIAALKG

[20] = target: T20, 4H2865-AA
T20 chain: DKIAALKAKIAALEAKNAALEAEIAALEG

[21] = target: T21, 4H570-AA; conditions: mean of both orientations
T21 chain: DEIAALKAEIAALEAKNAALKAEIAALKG

[22] = target: T22, 4H536-AA; conditions: mean of both orientations
T22 chain: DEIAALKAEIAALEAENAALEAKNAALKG

[23] = target: T23, 4H797-AA; conditions: mean of both orientations
T23 chain: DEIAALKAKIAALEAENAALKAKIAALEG

[24] = target: T24, 4H710-AA; conditions: mean of both orientations
T24 chain: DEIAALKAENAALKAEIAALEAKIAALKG

[25] = target: T25, 4H3009-AA; conditions: mean of both orientations
T25 chain: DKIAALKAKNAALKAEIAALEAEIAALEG

[26] = target: T26, 4H485-AA; conditions: mean of both orientations
T26 chain: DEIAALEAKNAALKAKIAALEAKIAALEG

[27] = target: T27, 4H930-AA; conditions: mean of both orientations
T27 chain: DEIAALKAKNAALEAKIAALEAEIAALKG

[28] = target: T28, 4H3753-AA; conditions: mean of both orientations
T28 chain: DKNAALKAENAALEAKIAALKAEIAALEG

[29] = target: T29, 4H3120-AA; conditions: mean of both orientations
T29 chain: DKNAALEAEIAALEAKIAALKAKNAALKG

[30] = target: T30, 4H3381-AA; conditions: mean of both orientations
T30 chain: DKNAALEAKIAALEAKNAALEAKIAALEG

[31] = target: T31, 4H629-AA; conditions: mean of both orientations
T31 chain: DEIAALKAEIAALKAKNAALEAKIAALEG

[32] = target: T32, 4H310-AA; conditions: mean of both orientations
T32 chain: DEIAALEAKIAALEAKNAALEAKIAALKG

[33] = target: T33, 4H3410-AA; conditions: mean of both orientations
T33 chain: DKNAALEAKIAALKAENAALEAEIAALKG

[34] = target: T34, 4H909-AA; conditions: mean of both orientations
T34 chain: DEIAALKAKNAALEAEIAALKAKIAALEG

[35] = target: T35, 4H3697-AA
T35 chain: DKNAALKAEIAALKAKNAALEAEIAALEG

[36] = target: T36, 4H745-AA; conditions: mean of both orientations
T36 chain: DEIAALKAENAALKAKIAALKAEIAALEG

[37] = target: T37, 4H3590-AA; conditions: mean of both orientations
T37 chain: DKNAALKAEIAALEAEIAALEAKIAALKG

[38] = target: T38, 4H891-AA; conditions: mean of both orientations
T38 chain: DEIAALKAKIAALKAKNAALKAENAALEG

[39] = target: T39, 4H3619-AA; conditions: mean of both orientations
T39 chain: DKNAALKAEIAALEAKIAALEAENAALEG

[40] = target: T40, 4H380-AA; conditions: mean of both orientations
T40 chain: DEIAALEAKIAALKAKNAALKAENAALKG

[41] = target: T41, 4H3629-AA; conditions: mean of both orientations
T41 chain: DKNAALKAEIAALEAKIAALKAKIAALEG

[42] = target: T42, 4H3449-AA
T42 chain: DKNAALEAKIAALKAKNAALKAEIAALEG

[43] = target: T43, 4H3777-AA; conditions: mean of both orientations
T43 chain: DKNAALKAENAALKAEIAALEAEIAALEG

[44] = target: T44, 4H432-AA; conditions: mean of both orientations
T44 chain: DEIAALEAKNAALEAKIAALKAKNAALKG

[45] = target: T45, 4H63-AA
T45 chain: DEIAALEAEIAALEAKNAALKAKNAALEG

[46] = target: T46, 4H3915-AA; conditions: mean of both orientations
T46 chain: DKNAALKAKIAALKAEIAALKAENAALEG

[47] = target: T47, 4H446-AA; conditions: mean of both orientations
T47 chain: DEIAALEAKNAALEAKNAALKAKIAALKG

[48] = target: T48, 4H3974-AA; conditions: mean of both orientations
T48 chain: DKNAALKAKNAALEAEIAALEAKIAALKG

[49] = target: T49, 4H55-AA
T49 chain: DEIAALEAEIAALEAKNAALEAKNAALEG

[50] = target: T50, 4H662-AA
T50 chain: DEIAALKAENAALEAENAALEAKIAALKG

[51] = target: T51, 4H2725-AA
T51 chain: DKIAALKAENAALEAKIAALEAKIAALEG

Binder: DKIAALKAKIAALEAKNAALEAEIAALEG [4H2865-AA]
interaction score [12]: -1.3
interaction score [13]: -0.487
interaction score [14]: -1.43
interaction score [15]: 0.586
interaction score [16]: 1.39
interaction score [17]: -1.47
interaction score [18]: -1.4
interaction score [19]: -0.6
interaction score [20]: 0.121
interaction score [21]: 1.01
interaction score [22]: 1.01
interaction score [23]: -0.194
interaction score [24]: -0.988
interaction score [25]: 2.01
interaction score [26]: -1.28
interaction score [27]: -1.5
interaction score [28]: -0.663
interaction score [29]: -0.983
interaction score [30]: -0.233
interaction score [31]: -0.872
interaction score [32]: 1.7
interaction score [33]: -0.858
interaction score [34]: -0.808
interaction score ([35]; mean of both orientations): -1.95
interaction score [36]: 0.436
interaction score [37]: -0.177
interaction score [38]: -1.8

Binder: DEIAALEAEIAALEAKNAALEAKNAALEG [4H55-AA]
interaction score [49]: -1.54
interaction score ([50]; mean of both orientations): -1.57

Binder: DKIAALKAENAALEAKIAALEAKIAALEG [4H2725-AA]
interaction score [12]: -1.16
interaction score [13]: -0.815
interaction score [14]: -1.64
interaction score [15]: -0.653
interaction score [16]: -0.91
interaction score [17]: -0.466
interaction score [18]: -0.188
interaction score [19]: 0.908
interaction score ([20]; mean of both orientations): -1.08
interaction score [21]: -0.95
interaction score [22]: -1.71
interaction score [51]: 1.47
interaction score [23]: -1.21
interaction score [24]: 0.748
interaction score [25]: 1.76
interaction score [26]: 1.94
interaction score [27]: 0.224
interaction score [28]: -1.26
interaction score [29]: -1.56
interaction score [30]: -1.94
interaction score [31]: -0.516
interaction score [32]: -1.1
interaction score [33]: -1.72
interaction score [34]: -0.311
interaction score [35]: 1.2
interaction score [36]: 1.36
interaction score [37]: -0.62
interaction score [38]: -1.64

Binder: DEIAALKAENAALEAENAALEAKIAALKG [4H662-AA]
interaction score [50]: 0.217

Further lines, results first:

interaction score [1]: -1.9
interaction score [2]: -1.76
interaction score [3]: -1.88
interaction score [4]: -1.48
Binder: DELAANEAKLAAIKAKLAANKAKLAAIKG [APC8191-AA]

interaction score [5]: -1.83
interaction score [6]: -1.65
interaction score [7]: -1.72
interaction score [8]: -1.27
interaction score [9]: -1.69
interaction score [10]: -1.98
interaction score [11]: -1.85
Binder: DKLAAEKAKNAALKAEAAALEAENAALEG [APC7524-AA]

interaction score [39]: -1.01
interaction score [40]: -1.96
interaction score [41]: -1.65
interaction score [42]: -2.07
interaction score [43]: -2.46
interaction score [44]: 0.499
interaction score [45]: -1.51
interaction score [46]: -1.74
interaction score [47]: -1.41
interaction score [48]: -0.638
Binder: DKNAALEAKIAALKAKNAALKAEIAALEG [4H3449-AA]
